According to patent US20130109846A1 (published 2013):
Residue numbers refer to the chain shown, from its start.

B1: 1h-36-6 (other)
VL: DIQMTQSPSSLSASVGDRVTITCRASRDIALDLLWYQLKPGKAPKLLIKGWSGLQSGVPSRFSGSGSGTDFTLTISSLQPEDFATYFCAQGWGRPVTFGQGTKVEIKR
B2: 1h-100 (other)
VH: EVQLLESGGGLVQPGGSLRLSCAASGFTFESYWMSWVRQAPGKGLEWVSTIADTGGLTYYADSVKGRFTISRDNSKNTLYLQMNSLRAEDTAVYYCAKVAYVLDDQPAFDYWGQGTLVTVSS
B3: 1h-115 (other)
VH: EVQLLESGGGLVQPGGSLRLSCAASGFTFSEYSMAWVRQAPGKGLEWVSHISRDGEFTYYADSVKGRFTISRDNSKNTLYLQMNSLRAEDTAVYYCAKGNADLGWVQPHLFVYWGQGTLVTVSS
B4: 1h-99-227 (other)
VH: EVQLLESGGGLVQPGGSLRLSCAASGFTFNHANMSWVRQAPGKGLEWVSWIEDTGTQTFYADSVKGRFTISRDNYKNTLYLQMNSLRAEDTAVYYCAKSPFGPLYGFDYRGQGTLVTVSS
B5: 1h-99-256 (other)
VH: B4 VH with N30D, H31S, D53A, T54I, T56V, Y75S
B6: 1h-99-262 (other)
VH: B4 VH with N30Y, H31K, D53A, T54P, T56V, K65R, Y75S, K98R
B7: 1h-99-278 (other)
VH: B4 VH with N30P, A32S, V37A, Y75S
B8: 1h-99-250 (other)
VH: B4 VH with N30D, H31S, V37A, D53A, T56G, Y75S
B9: 1h-99-236 (other)
VH: B4 VH with N30D, H31S, D53A, T54P, T56K, Y75S, Q112R
B10: 1h-99-269 (other)
VH: B4 VH with N30K, H31S, D53A, T54S, T56V, Y75S
B11: 1h-99-275 (other)
VH: B4 VH with N30K, H31D, A32K, V37A, Y75S, K98R
B12: 1h-99-270 (other)
VH: B4 VH with N30Y, H31K, V37A, D53A, T54S, T56V, Y75S
B13: 1h-99-241 (other)
VH: B4 VH with N30D, H31S, D53N, T54N, T56P, N74D, Y75S
B14: 1h-99-266 (other)
VH: B4 VH with N30Y, H31R, A32S, D53A, T54P, T56V, K65R, Y75S, K98R
B15: 1h-99-249 (other)
VH: B4 VH with N30D, H31S, T54I, T56V, Y75S
B16: 1h-99-277 (other)
VH: B4 VH with N30D, H31S, V37A, D53A, T54V, T56V, Y75S
B17: 1h-99-276 (other)
VH: B4 VH with H31R, V37A, Y75S
B18: 1h-99-246 (other)
VH: B4 VH with N30D, H31S, V37A, D53A, T54S, T56G, Y75S
B19: 1h-99-245 (other)
VH: B4 VH with N30D, H31S, V37A, D53A, T54S, T56F, Y75S
B20: 1h-99-297 (other)
VH: B4 VH with N30D, H31S, V37A, D53A, T54I, T56V, Y75S
B21: 1h-99-268 (other)
VH: B4 VH with N30K, H31S, D53A, T54P, T56V, K65R, Y75S, K98R
B22: 1h-99-264 (other)
VH: B4 VH with N30D, H31K, A32S, D53A, T54P, T56V, K65R, Y75S, K98R
B23: 1h-99-230 (other)
VH: B4 VH with N30D, H31S, D53S, T54I, T56V, Y75S
B24: 1h-99-228 (other)
VH: B4 VH with N30H, H31R, Y75S, F107S
B25: 1h-99-243 (other)
VH: B4 VH with N30D, H31S, V37G, D53A, T54S, T56V, Y75S
B26: 1h-99-229 (other)
VH: B4 VH with N30A, H31R, A32T, V37A, Y75S
B27: 1h-99-267 (other)
VH: B4 VH with N30Y, H31R, A32S, D53A, T54S, T56V, Y75S
B28: 1h-99-263 (other)
VH: B4 VH with N30Y, H31K, D53A, T54S, T56V, Y75S
B29: 1h-99-254 (other)
VH: B4 VH with N30D, H31S, V37A, D53S, T54S, T56G, Y75S
B30: 1h-99-260 (other)
VH: B4 VH with N30D, H31S, V37A, D53A, T54N, T56P, Y75S
B31: 1h-35 (other)
VL: DIQMTQSPSSLSASVGDRVTITCRASQYIGSALSWYQQKPGKAPKLLIYRASNLQSGVPSRFSGSGSGTDFTLTISSLQPEDFATYYCQQLAIRPFTFGQGTKVEIKR
B32: 1h-35-5 (other)
VL: B31 VL with L33I, K42R, N53Y, E105G
B33: 1h-35-7 (other)
VL: B31 VL with S34G, S67Y, D70G
B34: 1h-35-9 (other)
VL: B31 VL with S34G, L54M
B35: 1h-35-2 (other)
VL: B31 VL with S34G, N53H
B36: 1h-114 (other)
VH: EVQLLESGGGLVQPGGSLRLSCAASGFTFASYSMAWVRQAPGKGLEWVSTIMPSGQRTYYADSVKGRFTISRDNSKNTLYLQMNSLRAEDTAVYYCAKNQSHQRRGIFDYWGQGTLVTVSS
B37: 1h-119 (other)
VH: EVQLLESGGGLVQPGGSLRLSCAASGFTFTDRCMMWVRQAPGKGLEWVSSIQVEGNHTYYADSVKGRFTISRDNSKNTLYLQMNSLRAEDTAVYYCAKCMTVGPGNSFDYWGQGTLVTVSS
B38: 1h-38 (other)
VL: DIQMTQSPSSLSASVGDRVTITCRASQPIGSVLAWYQQKPGKAPKLLIYFSSILQSGVPSRFSGSGSGTDFTLTISGLQPEDFATYYCQQALRSPFTFGQGTKVEIKR

Biological target: human CD28 (human, UniProt P10747 19-220)
Assay: cell-based or functional assay

Binder | Luciferase assay (EC50) | MLR assay (EC50)
B1 | 162 nM | 260 nM
B2 | > 7000 nM | 
B3 | 4000 nM | > 7000 nM
B4 | 18 nM | 33 nM
B5 | 9 nM | 7 nM
B6 | 6 nM | 8 nM
B7 | 12 nM | 13 nM
B8 | 9 nM | 8 nM
B9 | 21 nM | 14 nM
B10 | 10 nM | 5 nM
B11 | 6 nM | 10 nM
B12 | 4 nM | 6 nM
B13 | 17 nM | 22 nM
B14 | 8 nM | 4 nM
B15 | 6 nM | 11 nM
B16 | 6 nM | 9 nM
B17 | 5 nM | 18 nM
B18 | 3 nM | 8 nM
B19 | 6 nM | 11 nM

Binder | Luciferase assay (EC50) | MLR assay (EC50)
B20 | 6 nM | 6 nM
B21 | 11 nM | 13 nM
B22 | 5 nM | 3 nM
B23 | 9 nM | 14 nM
B24 | 12 nM | 46 nM
B25 | 4 nM | 8 nM
B26 | 15 nM | 24 nM
B27 | 6 nM | 4 nM
B28 | 6 nM | 4 nM
B29 | 11 nM | 7 nM
B30 | 11 nM | 13 nM
B31 | 1900 nM | 2000 nM
B32 | 261 nM | 248 nM
B33 | 79 nM | 270 nM
B34 | 278 nM | 318 nM
B35 | 279 nM | 197 nM
B36 | 3100 nM | 
B37 | 2800 nM | 
B38 | 650 nM | 725 nM
